From paper PMC3170469

Columns and labels:
[1] = biological target: hydrogen peroxide treated recombinant human interferon beta-1a (human) (UniProt P01574); assay: SEC
[2] = biological target: metal-catalyzed oxidized recombinant human interferon beta-1a (human) (UniProt P01574); assay: SEC

| Substance | oligomer fraction (%) [1] [%] | oligomer fraction (%) [2] [%] |
| --- | --- | --- |
| hydrogen peroxide treated recombinant human interferon beta-1a (from UniProt P01574 22-187) (natural protein) | 7 | – |
| metal-catalyzed oxidized recombinant human interferon beta-1a (from UniProt P01574 22-187) (natural protein) | – | 68 |
